B1: TPR t1 (parent)
chain: GACCAAUCUGCCCUCAGAGCUCGAGAACAUCUUCGGAUGCAGAGGAGGCAGGCUUCGGUGGCGCGAUAGCGCCAACGUCCUCAACCUCCAAUGCAUCCCACCACAUGAUGAUGCCUGAAGAGCCUUGGUUUUUUG

Variants of: B1
Assay: polymerase ribozyme fitness, log enrichment relative to wild type (log ratio); higher = more active; in vitro selection for triplet polymerase activity
Method in brief: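 A single round of triplicate in vitro selection, including frozen incubation at −7 °C, was applied to PCR-built, transcribed mutant libraries of each subunit of a heterodimeric triplet polymerase ribozyme. Illumina sequencing of input and output libraries retained genotypes with ≥10 input reads and ≥1 read per output. Fitness is the base-2 logarithm of genotype enrichment divided by wild-type enrichment, from inverse-variance-weighted replicate averages.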

Row | Variant | polymerase ribozyme fitness (log ratio)
1 | GACCAAUCUGCCCUCAGAGCUCGAGAACAUCUUCGGUUGCAGAGGAGGCAGGCUUCGGUGGCGCGAUAGCGCCAACGUCCUCAACCUCCAAUGCAUCCCACCACAUGAUCAUGCCUGAAGUGCCUUGGUUUUUUG [A37U G110C A121U] | -3.77
2 | GACCAAUCUGCCCUCAGAGCUCGAGAACAUCUUCGGUUGCAGAGGAGGCAGGCUUCGGUGGCGCGAUAGCUCCAACGUCCUCAACCUCCAAUGCAUCCCACCACAUGAUGAUGCCUGAAGAACCUUGGUUUUUUG [A37U G71U G122A] | -1.17
3 | GACCAAUCUGCCCUCAGAGCUCGAGAACAUCUUCGGAAGCAGAGGAGGCAGGCUUCGGUGACGCGAUAGCGCCAACGUCCUCAACCUCCAAUGCAUCCCACCACAUGAUGAUGCCUGAAGAGCCUUGGUUUUUUG [U38A G61A] | -1.68
4 | GACCAAUCUGCCCUCAGAGCUCGAGAACAUCUUCGGAAGCAGAGGAGGUAGGCUUCGGUGGCGCGAUAGCGCCAACGUCCUCAACCUCCAAUGCAUCCCACCACAUGAUUAUGCCUGAAGAGCCUUGGUUUUUUG [U38A C49U G110U] | -4.28
5 | GACCAAUCUGCCCUCAGAGCUCGAGAACAUCUUCGGAAGCAGAGGAGGCAGGCUUCGGUGGCGCGAUAGCGCCAACGUCCUCAACCUCCAAUGCAUCCCACCACAUGAUGAUGCCUGAAUAGCCUUGGUUUUUUG [U38A G120U] | 0.263
6 | GACCAAUCUGCCCUCAGAGCUCGAGAACAUCUUCGGAAGCAGAGGAGGCAGGCUUCGGUGGCGCGAUAGCGCCAACGUCCUCAACCUCCAAUGCAUCCCAGCACAUGAUGAUGCCUGAACAGCCUUGGUUUUUUG [U38A C101G G120C] | -2.43
7 | GACCAAUCUGCCCUCAGAGCUCGAGAACAUCUUCGGAAGCAGAGGAGGCAGGCUUCGGUGGCGCGAUAGCGCCAACGUCCUCAACCUCCAAUGCAUCCCACCACAUGAUGAUGCCUGAAGAGCCUUAGUUUUUUG [U38A G127A] | -2.5
8 | GACCAAUCUGCCCUCAGAGCUCGAGAACAUCUUCGGUUGCAGAGGAGGCAGGCAUCGGUGCCGCGAUAGCGCCAACGUCCUCAACCUCCAAUGCAUCCCACCACAUGACGAUGCCUGAAGAGCCUUGGUUUUUUG [A37U U54A G61C U109C] | -7.14
9 | GACCAAUCUGCCCUCAGAGCUCGAGAACAUCUUCGGAAGCAGAGGAGGGAGGCUGCGGUGGCGCGAUAGCGCCAACGUCCUCAACCUCCAAUGCAUCCCACCACAUGAUGAUGCCUGAAGAGCCUUGGUUUUUUG [U38A C49G U55G] | -2.77
10 | GACCAAUCUGCCCUCAGAGCUCGAGAACAUCUUCGGACGCAGAGGAGGCAGGCUUUGGUGGCGCGAUAGCGCCAACGUCCUCAACCUCCAAUGCAUCCCACCACAUGAUGAUGCCUGAAGAGCCUUGGUUUUUUG [U38C C56U] | -0.488
11 | GACCAAUCUGCCCUCAGAGCUCGAGAACAUCUUCGGAAGCAGAGCAGGCAGGCUUCGGUGGCGCGAUAGCGCCAACGUCCUCAACCUCUAAUGCAUCCCACCACAUGAUGAUGCCUGAAGAGCCUUGGUUUUUUG [U38A G45C C89U] | -2.34
12 | GACCAAUCUGCCCUCAGAGCUCGAGAACAUCUUCGGAAGCAGAGGAGGCAGGCUUCGGUGGCGCGAUAGCGCCAACGUCCUCAACCUCCAAUGCAUCCCACAACAUGAUGAUGCCUGAAGAGCCUUGGUUUUUUG [U38A C102A] | -4.22
13 | GACCAAUCUGCCCUCAGAGCUCGAGAACAUCUUCGGAAGCAGAGGAGGCAGGCUUCGGUGGCGCGAUAGCGCCAACGUCCUCAACCUCCAAUGCAUCCCACUACAUGAUGAUGCCUGAAGAGCCUUGGUUUUUUG [U38A C102U] | -4.16
14 | GACCAAUCUGCCCUCAGAGCUCGAGAACAUCUUCGGUUGCAGAGGAGGCAGGCUUCGGUGGCGCGAUAGCGCCAACGUCCUCAACCUCCAAUGCAUCCCACCACAUGAUGAUGCCUGAAGAGCCUUUGUUUUUUG [A37U G127U] | -1.42
15 | GACCAAUCUGCCCUCAGAGCUCGAGAACAUCUUCGGAAGCAGAGGAGGCAGGCUUCGGUGGCGCGAUAGCGCCAACGUCCUCAACCUCCAAUGCAACCCACCACAUGAUGAUGCCUGAAGAGCCUUGGUUUUUUG [U38A U96A] | -1.13
16 | GACCAAUCUGCCCUCAGAGCUCGAGAACAUCUUCGGUUGCAGAGGAGGCAGGCAUCGGUGGCGCGAUAGCGCCAACGUCCUCAUCCUCCAAUGCAUCCCACCACAUGAUGAUGCCUGAAGAGCCUUGGUUUUUUG [A37U U54A A84U] | -0.554
17 | GACCAAUCUGCCCUCAGAGCUCGAGAACAUCUUCGGAAGCAGAGGAGGCAGGCUUCGGUGGCGUGAUAGCGCCAACGUCCUCAACCUCCAAUGCAUCCCACCACAUGAUGAUGCCUGAAGAGCCUUGGUUUAUUG [U38A C64U U132A] | -0.788
18 | GACCAAUCUGCCCUCAGAGCUCGAGAACAUCUUCGGACGCAGAGGAGGCAGGCUUCGGUGGCCCGAUAGCGCCAACGUCCUCAACCUCCAAUGCAUCCCACUACAUGAUGAUGCCUGAAGAGCCUUGGUUUUUUG [U38C G63C C102U] | -3.7
19 | GACCAAUCUGCCCUCAGAGCUCGAGAACAUCUUCGGAGGCUGAGGAGGCAGGCUUCGGUGGUGCGAUAGCGCCAACGUCCUCAACCUCCAAUGCAUCCCACCACAUGAUGAUGCCUGAAGAGCCUUGGUUUUUUG [U38G A41U C62U] | -3.01
20 | GACCAAUCUGCCCUCAGAGCUCGAGAACAUCUUCGGAAGCAGAGGAGGCAGGCUUCGGUGGCGCGAUAGCGCCAACGUCCUCAACCUCCAAUGCAUCCCACCACAUGAUGAUGACUGAAGUGCCUUGGUUUUUUG [U38A C114A A121U] | -1.59
21 | GACCAAUCUGCCCUCAGAGCUCGAGAACAUCUUCGGAGGCUGAGGAGGCAGGCUUCGGUGGCGCGAUAGCGCCAACGUCCUCAACCUCCAAUGCAUCCCACCACAUGAUGAUGCCUGAAGAGCCUUGGUUUUUUG [U38G A41U] | -2.98

— the RNAGym collection of RNA variant scans (doi:10.1073/pnas.2313332121)
